Biological target: T1, SERBP1 (human, UniProt Q8NC51 1-408)
T1 sequence: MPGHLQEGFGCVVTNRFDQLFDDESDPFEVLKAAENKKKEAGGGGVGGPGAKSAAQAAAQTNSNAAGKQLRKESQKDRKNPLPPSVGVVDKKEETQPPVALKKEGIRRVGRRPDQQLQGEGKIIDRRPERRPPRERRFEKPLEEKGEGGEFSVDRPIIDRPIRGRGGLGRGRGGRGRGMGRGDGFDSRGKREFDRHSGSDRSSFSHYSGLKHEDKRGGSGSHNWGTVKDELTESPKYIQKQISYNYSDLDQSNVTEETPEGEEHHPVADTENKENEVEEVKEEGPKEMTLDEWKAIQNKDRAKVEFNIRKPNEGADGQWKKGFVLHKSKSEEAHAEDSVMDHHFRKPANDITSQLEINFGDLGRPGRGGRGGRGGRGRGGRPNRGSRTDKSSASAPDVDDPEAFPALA
Assay: fluorescence polarization; 5 nM RNA, 0-1000 nM protein; FP: 10 mM HEPES pH 7.5, 50 mM KCl, room temperature
Conditions: protein: recombinant; tags: N-terminal His6, proteolytically removed (Methods; Results call it an N-terminus His6 fusion); label: 5'-fluorescein; single strand

GCGCGGG (ssRNA) [SERBP1 RNA 7-mer]
Kd: ~47 nM

Source: PMC7412812, “The RNA-binding protein SERBP1 functions as a novel oncogenic factor in glioblastoma by bridging cancer metabolism and epigenetic regulation”
